Our source for the protein stability index values is the supplement of paper PMC9732359.

± gives the uncertainty stated by the source.

This data set in a line: protein stability index of a GFP-peptide fusion (yeast GPS) (PSI 1-4); higher = more stable; sorted into four equal gates, so the index is relative within each strain. In a few lines:
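For each peptide, the protein stability index sums the read frequency in every gate after multiplying it by the gate number. Read frequencies came from plasmids that were PCR-amplified from each gate and Illumina-sequenced, with reads assigned to strains by barcodes. The gates were four equal bins of GFP/Cherry fluorescence ratio applied to mid-log yeast in leucine-free medium carrying a pooled library of tiled 17-residue yeast protein peptides fused downstream of GFP on a Cherry-expressing plasmid.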

With LEKERSILDDIKLSLKD [SMC4], the protein stability index runs as follows: (pdr5∆) 2.85 ± 0.14; (san1∆) 2.43 ± 0.17; (ubr1∆) 2.91 ± 0.11.
WTSTQRHHWQYTKASLA [SSN8]: the protein stability index was found to be 1.26 ± 0.093 (doa10∆), 1.38 ± 0.095 (pdr5∆), 1.42 ± 0.16 (san1∆) and 1.46 ± 0.073 (ubr1∆).
In turn, NSLIEEINERSETQTKD [YCG1] had a protein stability index (doa10∆) of 3.07 ± 0.12, a protein stability index (pdr5∆) of 3.33 ± 0.12, a protein stability index (san1∆) of 3.17 ± 0.087 and a protein stability index (ubr1∆) of 2.97 ± 0.1.
In turn, LSHYIRQCFQDNCCDFK [MED1] gave a protein stability index (doa10∆) of 2.78 ± 0.045, a protein stability index (pdr5∆) of 2.75 ± 0.052, a protein stability index (san1∆) of 2.94 ± 0.05 and a protein stability index (ubr1∆) of 2.83 ± 0.032.
For LINLKISPLMKSQYNMV [SRB8], the protein stability index is, setting by setting: (doa10∆) 1.8 ± 0.085; (pdr5∆) 1.59 ± 0.08; (san1∆) 2.07 ± 0.14; (ubr1∆) 1.53 ± 0.12.
Take PLDSKDENFASVSPAGP [SNF2]: the protein stability index by setting is: (doa10∆) 3.05 ± 0.11; (pdr5∆) 3.12 ± 0.092; (san1∆) 3.15 ± 0.071; (ubr1∆) 2.99 ± 0.06.
Sequence SYDCTGVNELAPIPKGR [POP1] returned a protein stability index (doa10∆) of 2.84 ± 0.061, a protein stability index (pdr5∆) of 2.79 ± 0.057, a protein stability index (san1∆) of 3.01 ± 0.055 and a protein stability index (ubr1∆) of 3 ± 0.042.
RGIPRLSEDELRELDVE [SMC4]: the protein stability index is, setting by setting: (doa10∆) 3.44 ± 0.14; (pdr5∆) 3.68 ± 0.21; (san1∆) 3.36 ± 0.14; (ubr1∆) 3.57 ± 0.11.
In the case of HQNESSAASIPPQQTYH [RPN4], the protein stability index runs as follows: (doa10∆) 2.57 ± 0.054; (pdr5∆) 2.89 ± 0.074; (san1∆) 2.53 ± 0.066; (ubr1∆) 2.69 ± 0.057.
Turning to HPLHELIIQYPPNNARR [ISW2], the protein stability index came to 3.06 ± 0.065 (doa10∆), 2.88 ± 0.056 (pdr5∆), 2.73 ± 0.052 (san1∆) and 3 ± 0.047 (ubr1∆).
As to NTLEFIIEQLSIAAERY [YCG1], the protein stability index runs as follows: (doa10∆) 2.29 ± 0.052; (pdr5∆) 2.62 ± 0.072; (san1∆) 2.16 ± 0.066; (ubr1∆) 2.39 ± 0.036.
SNIQRNVLFLRLFNNVK [SRP72]: the protein stability index by setting is: (doa10∆) 2.24 ± 0.059; (pdr5∆) 2.23 ± 0.054; (san1∆) 1.49 ± 0.076; (ubr1∆) 1.83 ± 0.05.
For the sequence NHLDELQKKFVTKQSEL [SMC1], the protein stability index is, setting by setting: (doa10∆) 2.59 ± 0.11; (pdr5∆) 3.06 ± 0.14; (san1∆) 2.35 ± 0.21; (ubr1∆) 2.72 ± 0.075.
Taken in the same sequence, the figures for KKSRLGNSFHLMRELLK [PRP8] were 2.58 ± 0.04, 2.71 ± 0.046, 2.39 ± 0.049 and 2.55 ± 0.043.
Consider YKVDNMTRILPQQSRYI [RPN2], for which the protein stability index reads like this: (doa10∆) 2.29 ± 0.077; (pdr5∆) 3.03 ± 0.12; (san1∆) 2.5 ± 0.1; (ubr1∆) 2.56 ± 0.099.
As for VVEPEHMADAKIMPKDI [SIR4], the protein stability index stood at 3.28 ± 0.1 (doa10∆), 3.35 ± 0.071 (pdr5∆), 3.33 ± 0.085 (san1∆) and 3.12 ± 0.081 (ubr1∆).
With DENAPVATNANATTDQE [PRE10], the protein stability index is, setting by setting: (doa10∆) 3.09 ± 0.23; (pdr5∆) 3.33 ± 0.15; (san1∆) 3.4 ± 0.17.
For KDYHTLANNVESKLRDD [RPS18A], the protein stability index is, setting by setting: (doa10∆) 3.29 ± 0.14; (pdr5∆) 3.48 ± 0.15; (san1∆) 3.39 ± 0.11; (ubr1∆) 3.33 ± 0.088.
Taken in the same sequence, the figures for VRKAITVLFFIGVRCYE [FAS1] were 1.47 ± 0.087, 1.77 ± 0.075, 2.49 ± 0.098 and 1.45 ± 0.064.
Consider TRNPDAPKGSTDPKELY [RPC40], for which the protein stability index amounted to 3.11 ± 0.23 (doa10∆), 3.63 ± 0.29 (pdr5∆) and 3.48 ± 0.16 (ubr1∆).
As to QPSYNSAIIENAFRKEE [GAL11], the protein stability index came out at 2.86 ± 0.086 (doa10∆), 2.68 ± 0.091 (pdr5∆), 2.74 ± 0.077 (san1∆) and 2.76 ± 0.055 (ubr1∆).
Consider SELPDIYSRDIGAELKR [SNF2], for which the protein stability index reads like this: (pdr5∆) 3.26 ± 0.13; (san1∆) 3.38 ± 0.08; (ubr1∆) 3.41 ± 0.18.
Take FQLIDMKDKEINIQKYN [CSI1]: the protein stability index runs as follows: (doa10∆) 2.47 ± 0.17; (pdr5∆) 1.98 ± 0.11; (ubr1∆) 2.57 ± 0.14.
Turning to VVFRDPYKYRLREEIFI [RPL2A], the protein stability index reads like this: (doa10∆) 2.47 ± 0.12; (pdr5∆) 2.66 ± 0.098; (san1∆) 2.01 ± 0.088; (ubr1∆) 2.81 ± 0.087.
In the case of GKVTDVRSTIKFQLKKV [RPL1A], the protein stability index reads like this: (doa10∆) 3.77 ± 0.21; (san1∆) 3.01 ± 0.25; (ubr1∆) 3.46 ± 0.13.
In turn, HESYCLPMDTNLFKINS [YMR129W/POM152] came in with a protein stability index (doa10∆) of 1.54 ± 0.055, a protein stability index (pdr5∆) of 1.72 ± 0.039, a protein stability index (san1∆) of 1.74 ± 0.13 and a protein stability index (ubr1∆) of 1.37 ± 0.067.
Taken in the same sequence, the figures for NNSNTVASSTNFTSPTA [SWI1] were 2.82 ± 0.039, 2.67 ± 0.039, 2.86 ± 0.041 and 2.71 ± 0.033.
As for LKQEGAANKTVVVVGTV [RPL18A], the protein stability index (doa10∆) came out at 2.94 ± 0.27, the protein stability index (pdr5∆) turned out to be 3.31 ± 0.11, the protein stability index (san1∆) is 2.51 ± 0.11 and the protein stability index (ubr1∆) amounted to 3.46 ± 0.12.
The like results for ALPRGARTATVSKKWAA [RPL14A] were, in that order, 2.25 ± 0.067, 2.23 ± 0.065, 1.96 ± 0.1 and 2.14 ± 0.056.
KEAFEEEIKQSARNYDK [SMC1]: the protein stability index runs as follows: (doa10∆) 3.21 ± 0.078; (pdr5∆) 3.09 ± 0.082; (san1∆) 3.06 ± 0.051; (ubr1∆) 3.31 ± 0.056.
On to GVVRYVMESGAKGCEVV [RPS3], for which the protein stability index amounted to 1.29 ± 0.097 (doa10∆), 1.67 ± 0.1 (pdr5∆) and 1.34 ± 0.086 (ubr1∆).
On to LVRYGLAEKVEKASRQQ [RPS24A], for which the protein stability index reads like this: (pdr5∆) 3.33 ± 0.11; (san1∆) 3.38 ± 0.098; (ubr1∆) 3.19 ± 0.19.
As for PKMQWSLQDNSAAINNE [RPN4], the protein stability index reads like this: (doa10∆) 3.15 ± 0.063; (pdr5∆) 3.2 ± 0.053; (san1∆) 2.96 ± 0.048; (ubr1∆) 3.15 ± 0.041.
Taken in the same sequence, the figures for TGNTTSKSAFSFGTANT [YOR098C/NUP1] were 2.5 ± 0.064, 2.72 ± 0.058, 1.95 ± 0.076 and 2.75 ± 0.056.
In the case of LSESPVDFEKFETFLVD [SIN4], the protein stability index (doa10∆) is 3.03 ± 0.12, the protein stability index (pdr5∆) is 2.73 ± 0.21 and the protein stability index (ubr1∆) worked out at 2.76 ± 0.21.
Regarding NRGVKLEIVYGYALRDV [RPP1], the protein stability index by setting is: (doa10∆) 2.54 ± 0.084; (pdr5∆) 2.64 ± 0.077; (san1∆) 2.46 ± 0.092; (ubr1∆) 3.04 ± 0.065.
